Measurements reported in paper PMC2954813, “Of Bits and Bugs — On the Use of Bioinformatics and a Bacterial Crystal Structure to Solve a Eukaryotic Repeat-Protein Structure” (PLoS ONE, 2010).
Where a chain is given by its changes, count along the chain named. Names may count otherwise.

Tests used:
[1] = target: the molecule itself; experiment: crystal structure; selenomethionine-substituted crystals grown at 4°C in 2.8 M sodium formate, protein 1.2 mg/mL, stoichiometric addition of the DNA oligomer hTel12 (not visible in the model); SAD, 1.9 Å
[2] = target: the molecule itself; experiment: crystal structure; native crystals grown at 21°C, hanging drop, protein 2.2 mg/ml, 100 mM HEPES (pH 7.2), 20% PEG 3350; molecular replacement, 2.2 Å
Pur-alpha 56-287 (C272S) [3] = target: T1, Pur-alpha 56-287 (C272S) (human, UniProt Q00577 56-287, C272S); experiment: filter binding; protein 0-10 uM; 2.5 mM MgCl2; 100 mM NaCl, 10 mM HEPES pH 8.0, 2.5 mM MgCl2, 1 mM DTT; 0.5 nM labeled oligo, 0-10 uM protein, 20 min, room temperature; settings: protein: recombinant; tags: GST removed by protease (tag cleaved); chain copies: 2; label: 5'-32P; single strand
T1 sequence: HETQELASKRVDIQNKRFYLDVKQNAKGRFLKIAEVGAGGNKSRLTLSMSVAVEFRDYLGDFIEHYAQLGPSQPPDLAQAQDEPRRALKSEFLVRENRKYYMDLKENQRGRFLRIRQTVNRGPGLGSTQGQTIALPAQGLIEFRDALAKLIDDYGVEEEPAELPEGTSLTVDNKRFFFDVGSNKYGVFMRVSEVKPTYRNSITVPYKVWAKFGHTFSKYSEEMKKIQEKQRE

Pur-alpha 56-287 (C272S) [4] = target: T1, Pur-alpha 56-287 (C272S); experiment: filter binding; replicates 491, 438, 306; 2.5 mM MgCl2; 100 mM NaCl, 10 mM HEPES pH 8.0, 2.5 mM MgCl2, 1 mM DTT; 0.5 nM labeled oligo, 0-10 uM protein, 20 min, room temperature; settings: protein: recombinant; tags: GST removed by protease (tag cleaved); chain copies: 2; label: 5'-32P; single strand
Pur-alpha 56-287 (C272S) [5] = target: T1, Pur-alpha 56-287 (C272S); experiment: filter binding; replicates 207, 258; 2.5 mM MgCl2; 100 mM NaCl, 10 mM HEPES pH 8.0, 2.5 mM MgCl2, 1 mM DTT; 0.5 nM labeled oligo, 0-10 uM protein, 20 min, room temperature; settings: protein: recombinant; tags: GST removed by protease (tag cleaved); chain copies: 2; label: 5'-32P; single strand

B1: selenomethionine-substituted B. burgdorferi Pur-α 8–105 (L17M, F27M, I64M) (domain or fragment)
chain: ERGEVYSEKMFTESERTYFMNVKENRKGDYFLNIVESKRSPSGDFERHSIFVYEENMNEFESNLLKAIAVIKQKVSTGSVGSSARHNKGYGEYGERSK
modifications: selenomethionine-substituted (methionines introduced at positions 17, 27 and 64; no other methionines in this fragment)
notes: Expressed from the pGEX6p1 vector (BamHI/XhoI); Only amino acids 8 to 84 are visible in the electron density; also called SeMet; selenomethionine-derivatized protein; source: E. coli BL21, purified (glutathione column, protease cleavage, Q column, heparin column, size-exclusion chromatography)
stoichiometry N [1]: 2

B2: B. burgdorferi Pur-α 8–105 (domain or fragment, Borrelia burgdorferi B31, UniProt O51076-2 8-105, looked up)
chain: B1 chain with M10L, M20F, M57I
notes: Pur-α (hypothetical protein BB0047) of Borrelia burgdorferi B31, 127-amino acid gene product, amino acids 8 to 105; Expressed from the pGEX6p1 vector (BamHI/XhoI); also called native protein; BB0047 fragment; source: E. coli BL21, purified (glutathione column, protease cleavage, Q column, heparin column, size-exclusion chromatography)
binding result [2]: binds

CCTCCGCCTCCG (ssDNA) [Control]
binding result (Pur-alpha 56-287 (C272S) [3]): no binding

AGGGTTAGGGTT (ssDNA) [hTel12]
Kd (Pur-alpha 56-287 (C272S) [4]): 411 ± 95 nM

GGAGGGGGAGGC (ssDNA) [JCVupTAR]
Kd (Pur-alpha 56-287 (C272S) [5]): 233 ± 36 nM
